Data published in IntAct's records for PubMed 34606829.

B1: ALK tyrosine kinase receptor (Homo sapiens), Q9UM73 (parent)
chain: MGAIGLLWLLPLLLSTAAVGSGMGTGQRAGSPAAGPPLQPREPLSYSRLQRKSLAVDFVVPSLFRVYARDLLLPPSSSELKAGRPEARGSLALDCAPLLRLLGPAPGVSWTAGSPAPAEARTLSRVLKGGSVRKLRRAKQLVLELGEEAILEGCVGPPGEAAVGLLQFNLSELFSWWIRQGEGRLRIRLMPEKKASEVGREGRLSAAIRASQPRLLFQIFGTGHSSLESPTNMPSPSPDYFTWNLTWIMKDSFPFLSHRSRYGLECSFDFPCELEYSPPLHDLRNQSWSWRRIPSEEASQMDLLDGPGAERSKEMPRGSFLLLNTSADSKHTILSPWMRSSSEHCTLAVSVHRHLQPSGRYIAQLLPHNEAAREILLMPTPGKHGWTVLQGRIGRPDNPFRVALEYISSGNRSLSAVDFFALKNCSEGTSPGSKMALQSSFTCWNGTVLQLGQACDFHQDCAQGEDESQMCRKLPVGFYCNFEDGFCGWTQGTLSPHTPQWQVRTLKDARFQDHQDHALLLSTTDVPASESATVTSATFPAPIKSSPCELRMSWLIRGVLRGNVSLVLVENKTGKEQGRMVWHVAAYEGLSLWQWMVLPLLDVSDRFWLQMVAWWGQGSRAIVAFDNISISLDCYLTISGEDKILQNTAPKSRNLFERNPNKELKPGENSPRQTPIFDPTVHWLFTTCGASGPHGPTQAQCNNAYQNSNLSVEVGSEGPLKGIQIWKVPATDTYSISGYGAAGGKGGKNTMMRSHGVSVLGIFNLEKDDMLYILVGQQGEDACPSTNQLIQKVCIGENNVIEEEIRVNRSVHEWAGGGGGGGGATYVFKMKDGVPVPLIIAAGGGGRAYGAKTDTFHPERLENNSSVLGLNGNSGAAGGGGGWNDNTSLLWAGKSLQEGATGGHSCPQAMKKWGWETRGGFGGGGGGCSSGGGGGGYIGGNAASNNDPEMDGEDGVSFISPLGILYTPALKVMEGHGEVNIKHYLNCSHCEVDECHMDPESHKVICFCDHGTVLAEDGVSCIVSPTPEPHLPLSLILSVVTSALVAALVLAFSGIMIVYRRKHQELQAMQMELQSPEYKLSKLRTSTIMTDYNPNYCFAGKTSSISDLKEVPRKNITLIRGLGHGAFGEVYEGQVSGMPNDPSPLQVAVKTLPEVCSEQDELDFLMEALIISKFNHQNIVRCIGVSLQSLPRFILLELMAGGDLKSFLRETRPRPSQPSSLAMLDLLHVARDIACGCQYLEENHFIHRDIAARNCLLTCPGPGRVAKIGDFGMARDIYRASYYRKGGCAMLPVKWMPPEAFMEGIFTSKTDTWSFGVLLWEIFSLGYMPYPSKSNQEVLEFVTSGGRMDPPKNCPGPVYRIMTQCWQHQPEDRPNFAIILERIEYCTQDPDVINTALPIEYGPLVEEEEKVPVRPKDPEGVPPLLVSQQAKREEERSPAAPPPLPTTSSGKAAKKPTAAEISVRVPRGPAVEGGHVNMAFSQSNPPSELHKVHGSRNKPTSLWNPTYGSWFTEKPTKKNNPIAKKEPHDRGNLGLEGSCTVPPNVATGRLPGASLLLEPSSLTANMKEVPLFRLRHFPCGNVNYGYQQQGLPLEAATAPGAGHYEDTILKSKNSMNQPGP
partner: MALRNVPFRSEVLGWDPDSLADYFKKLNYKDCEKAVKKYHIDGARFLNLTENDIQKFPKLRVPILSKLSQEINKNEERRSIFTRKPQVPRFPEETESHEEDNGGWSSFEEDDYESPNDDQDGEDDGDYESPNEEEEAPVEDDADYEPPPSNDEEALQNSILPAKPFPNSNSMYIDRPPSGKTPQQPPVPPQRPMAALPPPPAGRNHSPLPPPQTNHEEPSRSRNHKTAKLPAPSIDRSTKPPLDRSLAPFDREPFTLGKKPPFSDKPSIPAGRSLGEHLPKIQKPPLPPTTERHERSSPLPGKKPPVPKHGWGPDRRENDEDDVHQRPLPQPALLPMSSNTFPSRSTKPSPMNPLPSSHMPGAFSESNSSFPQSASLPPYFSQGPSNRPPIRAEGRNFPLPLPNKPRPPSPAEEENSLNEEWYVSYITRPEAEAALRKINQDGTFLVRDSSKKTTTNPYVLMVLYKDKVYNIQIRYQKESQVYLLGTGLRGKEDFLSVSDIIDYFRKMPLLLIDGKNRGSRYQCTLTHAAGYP
B2: ALK tyrosine kinase receptor (Homo sapiens), Q9UM73 (parent)
chain: B1 chain
partner: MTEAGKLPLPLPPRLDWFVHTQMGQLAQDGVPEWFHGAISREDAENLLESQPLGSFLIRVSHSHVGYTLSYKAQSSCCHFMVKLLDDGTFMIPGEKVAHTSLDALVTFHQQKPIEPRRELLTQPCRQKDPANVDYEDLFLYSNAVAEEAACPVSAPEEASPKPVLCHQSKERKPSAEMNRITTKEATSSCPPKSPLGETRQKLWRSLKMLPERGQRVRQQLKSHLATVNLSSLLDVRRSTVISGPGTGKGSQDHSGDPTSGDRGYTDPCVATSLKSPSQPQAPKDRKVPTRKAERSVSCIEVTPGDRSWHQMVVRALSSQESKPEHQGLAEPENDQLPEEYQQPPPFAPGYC
B3: ALK tyrosine kinase receptor (Homo sapiens), Q9UM73 (parent)
chain: B1 chain
partner: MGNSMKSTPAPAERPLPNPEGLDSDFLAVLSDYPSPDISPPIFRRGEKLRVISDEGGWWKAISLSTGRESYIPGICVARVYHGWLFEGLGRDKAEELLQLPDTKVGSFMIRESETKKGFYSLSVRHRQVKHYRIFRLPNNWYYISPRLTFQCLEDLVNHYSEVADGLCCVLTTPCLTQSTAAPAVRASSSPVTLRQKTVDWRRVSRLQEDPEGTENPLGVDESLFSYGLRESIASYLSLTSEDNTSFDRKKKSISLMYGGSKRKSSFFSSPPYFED
B4: ALK tyrosine kinase receptor (Homo sapiens), Q9UM73 (parent)
chain: B1 chain
partner: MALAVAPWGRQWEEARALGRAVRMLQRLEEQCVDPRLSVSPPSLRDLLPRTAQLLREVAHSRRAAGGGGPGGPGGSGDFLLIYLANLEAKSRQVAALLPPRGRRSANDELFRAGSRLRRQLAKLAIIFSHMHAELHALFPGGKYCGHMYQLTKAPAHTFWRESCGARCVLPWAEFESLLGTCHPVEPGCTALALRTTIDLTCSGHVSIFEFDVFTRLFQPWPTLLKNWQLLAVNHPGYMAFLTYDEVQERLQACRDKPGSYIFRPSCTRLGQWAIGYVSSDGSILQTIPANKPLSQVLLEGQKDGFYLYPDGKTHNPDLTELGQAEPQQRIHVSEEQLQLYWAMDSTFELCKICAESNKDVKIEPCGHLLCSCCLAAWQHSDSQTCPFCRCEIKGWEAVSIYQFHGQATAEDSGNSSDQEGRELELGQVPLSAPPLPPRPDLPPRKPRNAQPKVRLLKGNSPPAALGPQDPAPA
B5: ALK tyrosine kinase receptor (Homo sapiens), Q9UM73 (parent)
chain: B1 chain
partner: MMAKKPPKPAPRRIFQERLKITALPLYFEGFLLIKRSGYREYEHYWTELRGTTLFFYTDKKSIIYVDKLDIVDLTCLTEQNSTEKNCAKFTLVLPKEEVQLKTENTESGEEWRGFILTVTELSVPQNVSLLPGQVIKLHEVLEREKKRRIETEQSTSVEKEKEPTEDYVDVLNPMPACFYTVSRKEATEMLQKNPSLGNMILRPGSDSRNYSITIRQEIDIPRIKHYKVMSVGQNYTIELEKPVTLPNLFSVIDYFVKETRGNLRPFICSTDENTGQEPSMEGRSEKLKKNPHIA
B6: ALK tyrosine kinase receptor (Homo sapiens), Q9UM73 (parent)
chain: B1 chain
partner: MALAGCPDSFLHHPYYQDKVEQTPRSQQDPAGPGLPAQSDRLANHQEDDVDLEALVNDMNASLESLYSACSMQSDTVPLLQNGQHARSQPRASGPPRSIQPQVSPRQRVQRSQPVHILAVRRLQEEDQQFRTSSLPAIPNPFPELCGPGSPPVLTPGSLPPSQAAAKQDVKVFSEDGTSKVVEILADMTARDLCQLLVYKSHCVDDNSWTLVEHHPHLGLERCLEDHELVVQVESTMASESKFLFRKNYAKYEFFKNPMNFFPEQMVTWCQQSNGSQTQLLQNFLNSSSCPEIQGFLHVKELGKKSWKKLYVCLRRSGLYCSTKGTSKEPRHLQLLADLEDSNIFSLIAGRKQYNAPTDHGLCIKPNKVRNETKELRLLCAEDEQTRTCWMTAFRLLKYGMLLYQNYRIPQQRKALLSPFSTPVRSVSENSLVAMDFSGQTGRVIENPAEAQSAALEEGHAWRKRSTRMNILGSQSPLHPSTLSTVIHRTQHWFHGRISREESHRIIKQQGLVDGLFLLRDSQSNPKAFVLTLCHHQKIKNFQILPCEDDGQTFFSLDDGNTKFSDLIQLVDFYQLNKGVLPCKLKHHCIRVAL
B7: ALK tyrosine kinase receptor (Homo sapiens), Q9UM73 (parent)
chain: B1 chain
partner: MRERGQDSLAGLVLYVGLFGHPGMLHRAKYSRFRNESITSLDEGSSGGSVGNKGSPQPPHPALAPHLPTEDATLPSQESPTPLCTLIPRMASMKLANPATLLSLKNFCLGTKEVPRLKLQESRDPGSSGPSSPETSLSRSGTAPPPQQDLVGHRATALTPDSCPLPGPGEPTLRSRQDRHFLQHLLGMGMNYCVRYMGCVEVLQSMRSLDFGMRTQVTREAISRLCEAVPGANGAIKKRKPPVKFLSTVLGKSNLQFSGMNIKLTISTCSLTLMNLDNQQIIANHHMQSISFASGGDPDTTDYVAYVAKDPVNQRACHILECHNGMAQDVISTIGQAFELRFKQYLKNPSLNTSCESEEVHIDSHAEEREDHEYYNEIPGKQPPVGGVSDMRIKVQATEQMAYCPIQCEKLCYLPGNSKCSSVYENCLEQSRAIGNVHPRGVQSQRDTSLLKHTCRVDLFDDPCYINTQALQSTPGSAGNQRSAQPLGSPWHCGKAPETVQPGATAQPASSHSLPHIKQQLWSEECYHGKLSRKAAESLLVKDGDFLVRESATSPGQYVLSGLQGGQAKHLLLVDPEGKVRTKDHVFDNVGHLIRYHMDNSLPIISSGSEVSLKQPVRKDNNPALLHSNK

Variants of: B1
Details: with lcp2_human LCP2, Q13094

| effect of a mutation on the interaction | Variant |
| --- | --- |
| decreasing interaction strength | I1250T |
| increasing interaction strength | F1245C |
| increasing interaction strength | L1196M |

Variants of: B2
Details: with hsh2d_human HSH2D

| effect of a mutation on the interaction | Variant |
| --- | --- |
| decreasing interaction strength | I1250T |
| increasing interaction strength | F1245C |
| increasing interaction strength | L1196M |

Variants of: B3
Details: with slap1_human SLA

| effect of a mutation on the interaction | Variant |
| --- | --- |
| increasing interaction strength | L1196M |
| decreasing interaction strength | I1250T |
| increasing interaction strength | F1245C |

Variants of: B4
Details: with cblc_human CBLC

| effect of a mutation on the interaction | Variant |
| --- | --- |
| decreasing interaction strength | I1250T |
| increasing interaction strength | F1245C |
| increasing interaction strength | L1196M |

Variants of: B5
Details: with stap1_human STAP1, Q9ULZ2

| effect of a mutation on the interaction | Variant |
| --- | --- |
| increasing interaction strength | F1245C |
| decreasing interaction strength | I1250T |
| increasing interaction strength | L1196M |

Variants of: B6
Details: with grb10_human GRB10, Q13322

| effect of a mutation on the interaction | Variant |
| --- | --- |
| decreasing interaction strength | I1250T |
| increasing interaction strength | L1196M |
| increasing interaction strength | F1245C |

Variants of: B7
Details: with shc4_human SHC4, Q6S5L8

| effect of a mutation on the interaction | Variant |
| --- | --- |
| increasing interaction strength | L1196M |
| decreasing interaction strength | I1250T |
| increasing interaction strength | F1245C |
